Laboratory results reported in US10501734B2, “Compositions and methods of use thereof for making polypeptides with many instances of nonstandard amino acids” (Yale University, priority 2014, dated 2019).
Residue numbers refer to the chain shown, from its start. In names and notes the source's numbering stands. Where two headings read alike, the source gives them in different places.

B1: pAcFRS.1: pAcFRS variant A167D, SEQ ID NO: 2 (protein)
chain: MDEFEMIKRNTSEIISEEELREVLKKDEKSALIGFEPSGKIHLGHYLQIKKMIDLQNAGFDIIILLADLHAYLNQKGELDEIRKIGDYNKKVFEAMGLKAKYVYGSEFQLDKDYTLNVYRLALKTTLKRARRSMELIAREDENPKVAEVIYPIMQVNGCHYRGVDVDVGGMEQRKIHMLARELLPKKVVCIHNPVLTGLDGEGKMSSSKGNFIAVDDSPEEIRAKIKKAYCPAGVVEGNPIMEIAKYFLEYPLTIKRPEKFGGDLTVNSYEELESLFKNKELHPMRLKNAVAEELIKILEPIRKRL
B2: pAcFRS.t1: pAcFRS variant R257G, SEQ ID NO: 3 (protein)
chain: B1 chain with D167A, R257G
B3: pAcFRS.1.t2: pAcFRS variant A167D, R257C, F261E, SEQ ID NO: 6 (protein)
chain: B1 chain with R257C, F261E
B4: pAcFRS.t2: pAcFRS variant R257C, F261E, SEQ ID NO: 4 (protein)
chain: B1 chain with D167A, R257C, F261E
B5: WTmjYRS: wild-type M. jannaschii TyrRS, the parent AARS of pAcFRS (protein, UniProt Q57834 1-306, looked up)
Tyrosine--tRNA ligase: B1 chain with L32Y, G158D, C159I, R162L, D167A, R286D
B6: pAcFRS.2: pAcFRS variant L65V, A167D, SEQ ID NO: 7 (protein)
chain: B1 chain with L65V

Experiments:
[1] = tested on: tRNA; assay: Aminoacylation assay (tRNA charging); assay type: biochemical
Description: Template plasmid containing tRNA gene was purified with the plasmid maxi kit (Qiagen), and 100 μg of plasmid was digested with BstNI (New England Biolabs). The BstNI digested template DNA was purified by phenol chloroform extraction, followed by ethanol precipitation and resolved in double distilled water. A His-tagged T7 RNA polymerase was purified over column of Ni-NTA resin according to manufacturer's instructions (Qiagen). The transcription reaction [40 mM Tris (pH 8); 4 mM each of UTP, CTP, GTP, and ATP at pH 7.0; 22 mM MgCl2; 2 mM spermidine; 10 mM DTT; 6 μg pyrophosphatase (Roche Applied Science); 60 μg/mL BstNI digested DNA template, approximately 0.2 mg/ml T7 RNA polymerase] was performed in 10 ml reaction volumes for overnight at 37° C. The tRNA was purified on 12% denaturing polyacrylamide gel containing 8 M urea and TBE buffer (90 mM Tris, 90 mM boric acid, 2 mM EDTA). UV shadowing illuminates the pure tRNA band, which is excised and extracted three times with 1M sodium acetate pH 5.3 at 4° C. The tRNA extractions were then ethanol precipitated, dissolved in RNase-free distilled water, pooled, and finally desalted using a Biospin 30 column (BioRad). The ratio of aminoacylated tRNA to total tRNA was determined to monitor reaction progress.
The tRNA was refolded by heating to 100° C. for 5 min and slow cooling to room temperature. At 65° C., MgC12, was added to a final concentration of 10 mM to aid folding. A His-tagged CCA adding enzyme was purified over column of Ni-NTA resin according to manufacturer's instructions (Qiagen). 16 μM folded tRNA in 50 mM Tris (pH 8.0), 20 mM MgCl2, 5 mM DTT and 50 μM NaPPi was incubated at room temperature for 1 hour with approximately 0.2 mg/ml CCA-adding enzyme and 1.6 μCi/μl of [α-32P]-labeled ATP (PerkinElmer). The sample was phenol/chloroform extracted and then passed over a Bio-spin 30 column (Bio-Rad) to remove excess ATP.
A 20 μl aminoacylation reaction contained the following components: 50 mM HEPES-KOH (pH 7.2), 25 mM KCl, 10 mM MgCl2, 5 mM DTT, 10 mM ATP, 25 μg/ml pyrophosphatase (Roche Applied Science), 2 mM amino acids. All plateau tRNA aminoacylation levels were determined at 37° C. according to the reactions conditions described above with 500 nM enzyme, 5 μM unlabeled tRNA plus 100 nM 32P-labeled tRNA. Time points were taken at 5 minutes, 20 minutes and 60 minutes by removing 2 μl aliquots from the reaction and immediately quenching the reaction into an ice-cold 3 μl quench solution [0.66 μg/μl nuclease P1 (Sigma) in 100 mM sodium citrate (pH 5.0)]. For each reaction, 2 μl of blank reaction mixture containing no enzymes was added to the quench solution as the start time point. The nuclease P1 mixture was then incubated at room temperature for 30 min and 1 μl aliquots were spotted on PEI-cellulose plates (Merck) and developed in running buffer containing 5% acetic acid and 100 mM ammonium acetate. Radioactive spots for AMP and AA-AMP (representing free tRNA and aminoacyl-tRNA, respectively) were separated and then visualized and quantified by phosphor imaging by a Molecular Dynamics Storm 860 phosphorimager (Amersham Biosciences). The ratio of aminoacylated tRNA to total tRNA was determined to monitor reaction progress.

[2] = ATP-PPi exchange assay (amino acid activation); assay type: biochemical
Description: A 25 μl ATP-PPi exchange reaction contained the following components: 100 mM HEPES-KOH (pH 7.5), 30 mM KCl, 10 mM MgCl2, 2 mM DTT, 2 mM KF, 2 mM NaPPi, 5 mM ATP, […], 2 μCi/μl of […] (PerkinElmer) and varied concentrations of amino acids (0.25, 0.5, 1.25, 2.5, 5, 10, and 20 mM, respectively). The reactions were incubated at 37° C. Time points were taken at 2 minutes, 5 minutes and 10 minutes by plotting 1 μl aliquots from the reaction immediately to the PEI-cellulose plates (Merck). For each reaction, 1 μl of blank reaction mixture containing no enzymes was set as background. The reaction mixtures were separated on the plates in 1 M urea and 1 M monopotassium phosphate. The plates were then scanned in a Molecular Dynamics Storm 860 phosphorimager (Amersham Biosciences). The ratio of ATP to PPi was determined to monitor reaction progress. The kinetic constants were derived from plotting initial velocity of a series of reactions that contained varied concentrations of amino acids. The data were analyzed by GraFit 5.0 (Erithacus Software).

[3] = tested on: GFP(3TAG); assay type: cell-based, E. coli; settings: chromosomally integrated AARS; for higher GFP(3TAG) production compared with the progenitor enzyme: pAcF
Description: (§1) Liquid cell cultures of strains harboring chromosomally integrated OTSs and GFP reporter plasmids were inoculated from frozen stocks and grown to confluence overnight. Cultures were then inoculated at 1:20 dilution in LBmin media supplemented with 30 μg/ml kanamycin. Strains were inoculated by addition of 1:20 confluent cell culture (grown overnight) and allowed to grow at 34° C. to an OD600 of 0.5-0.8 in a shaking plate incubator at 650 r.p.m (˜3 h). AARS expression was then induced by the addition of 0.2% arabinose, GFP expression was induced by the addition of 60 ng/ul anhydrotetracycline, and the appropriate nsAA was added to a concentration of 1 mM. Cells were incubated at 34° C. for an additional 16 h. Liquid cell cultures of strains harboring plasmid-based OTSs and GFP or ELP-GFP reporter plasmids were inoculated from frozen stocks and grown to confluence overnight. Cultures were then inoculated at 1:20 dilution in 2×YT media supplemented with 30 μg/ml kanamycin and 20 μg/ml chloramphenicol. […] Cells were allowed to grow at 34° C. to an OD600 of 0.5-0.8 in a shaking plate incubator at 650 r.p.m (˜3 h), reporter protein expression was then induced by the addition of 60 ng/ul anhydrotetracycline, and cells were incubated at 34° C. for an additional 16 h.
(§2) For 384 well plate-based assays, fluorescence and OD600 were directly measured following expression. For 96 well plate-based assays, cells were centrifuged at 4,000 g for 4 min. Supernatant medium was removed and cells were resuspended in PBS. This process was repeated twice with PBS. GFP fluorescence was measured on a Biotek spectrophotometric plate reader using excitation and emission wavelengths of 395 and 509 nm, respectively). Fluorescence signals were normalized by dividing the fluorescence counts by the OD600 reading. The nsAAs used in this study were purchased from Sigma-Aldrich (St. Louis, Mo.), Chemlmpex (Wood Dale, Ill.), and Bachem (Torrance, Calif.). Solutions of nsAAs (50 mM) were made in water or 50 mM NaOH; these stock solutions were diluted 50- or 100-fold (to 1 mM final concentration) into medium used for bacterial growth.

[4] = tested on: GFP(3TAG); assay: nsAA library screening, GFP(3TAG) fluorescence in 384 well plates; assay type: cell-based, E. coli; settings: GFP(3TAG) production in the presence of pAcF, pAzF and 236 other nsAAs
Description: as §1
as §2, with “growth. […]” for “growth.”

[5] = nsAA pAcF, relative to progenitor pAcFRS
[6] = nsAA pAzF, relative to progenitor pAcFRS
[7] = amino acid Tyrosine, relative to pAcFRS

| Molecule | Km ([1]; nsAA pAcF) [µM] | kcat ([1]; nsAA pAcF) | Fold change [1, 5] | Km ([1]; nsAA pAzF) [µM] | kcat ([1]; nsAA pAzF) | Fold change [1, 6] | Km ([2]; nsAA pAcF) [mM] | kcat ([2]; nsAA pAcF) | Fold change [2, 5] | Km ([2]; nsAA pAzF) [mM] | kcat ([2]; nsAA pAzF) | Fold change [2, 6] | higher GFP(3TAG) production compared with the progenitor enzyme [3] [fold] | nsAA specificity (polyspecificity) [4] | further results |
| --- | --- | --- | --- | --- | --- | --- | --- | --- | --- | --- | --- | --- | --- | --- | --- |
| B1 | 36 ± 7 | 1.21 ± 0.24 ×10^−3 s^−1 | 4.60 | 31 ± 9 | 0.65 ± 0.20 ×10^−3 s^−1 | 3.38 | 2.16 ± 0.72 | 6.84 ± 0.64 ×10^−2 s^−1 | 4.64 | 1.74 ± 0.39 | 3.50 ± 0.20 ×10^−2 s^−1 | 1.37 | ~8 | polyspecifity for at least pAcF, pAzF, StyA, 4IF, 4BrF, 4ClF, 4MeF, 4Cf3F, MeY, 4NO2F, 4BuF, BuY, 2NaA, PheF | – |
| B2 | 17 ± 3 | 0.22 ± 0.02 ×10^−3 s^−1 | 1.77 | – | – | – | 9.17 ± 3.67 | 6.92 ± 1.27 ×10^−2 s^−1 | 1.11 | – | – | – | ~1.5 | polyspecifity for at least pAc.F, pAzF, StyA | – |
| B3 | 27 ± 3 | 1.03 ± 0.06 ×10^−3 s^−1 | 5.22 | – | – | – | 1.69 ± 0.44 | 6.30 ± 0.46 ×10^−2 s^−1 | 5.47 | – | – | – | ~15 | polyspecifity for at least pAcF, pAzF, StyA, 4IF, 4BrF, 4ClF, 4MeF, 4Cf3F, MeY, 4NO2F, 4BuF, BuY, 2NaA, PheF | – |
| B4 | 29 ± 3 | 0.27 ± 0.07 ×10^−3 s^−1 | 1.27 | – | – | – | 8.59 ± 3.23 | 6.67 ± 1.27 ×10^−2 s^−1 | 1.14 | – | – | – | ~1.5 | polyspecifity for at least pAcF, pAzF, StyA | – |
| B5 | – | – | – | – | – | – | – | – | – | – | – | – | – | – | Km ([1]; amino acid Tyrosine): 23 ± 3 µM; kcat ([1]; amino acid Tyrosine): 130 ± 22 ×10^−3 s^−1; Fold change [1, 7]: 774; kcat ([2]; amino acid Tyrosine): 52.2 ± 4.1 ×10^−2 s^−1; Km ([2]; amino acid Tyrosine, read-out: Km, nsAA): 0.076 ± 0.03 mM; Fold change [2, 7]: 1007 |
| B6 | 31 ± 7 | 0.58 ± 0.09 ×10^−3 s^−1 | 2.56 | 33 ± 8 | 0.18 ± 0.02 ×10^−3 s^−1 | 0.88 | 3.13 ± 1.73 | 5.28 ± 0.79 ×10^−2 s^−1 | 2.48 | 6.4 ± 0.78 | 4.08 ± 0.20 ×10^−2 s^−1 | 0.44 | – | polyspecifity for at least pAcF, pAzF, StyA, 4IF, 4BrF, 4ClF, 4MeF, 4Cf3F, MeY, 4NO2F, 4BuF, BuY, 2NaA, PheF | selectivity toward pAcF over pAzF ([3]; GFP(3TAG) expression): increase in selectivity |
